Patent US20050050588, “Systemic small RNA signaling system in plants” (published 2005)

Experiments:
[1] = molecular target: T1, KNOTTED1 (KN1) (UniProt P24345); test: cell_activity
T1 sequence: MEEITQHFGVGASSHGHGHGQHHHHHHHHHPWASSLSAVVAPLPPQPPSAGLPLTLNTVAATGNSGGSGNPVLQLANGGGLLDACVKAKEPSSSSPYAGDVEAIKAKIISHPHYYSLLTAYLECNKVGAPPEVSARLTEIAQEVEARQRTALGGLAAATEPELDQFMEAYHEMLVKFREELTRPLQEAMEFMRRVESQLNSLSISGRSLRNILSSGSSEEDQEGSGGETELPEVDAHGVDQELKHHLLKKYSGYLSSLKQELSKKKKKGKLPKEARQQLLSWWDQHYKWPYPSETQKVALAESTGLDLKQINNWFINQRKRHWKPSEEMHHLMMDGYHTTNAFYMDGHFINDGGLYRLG

[2] = molecular target: T2, CMV movement protein (CMV-MP) (Cucumber mosaic virus) (UniProt Q83252); test: cell_activity
T2 sequence: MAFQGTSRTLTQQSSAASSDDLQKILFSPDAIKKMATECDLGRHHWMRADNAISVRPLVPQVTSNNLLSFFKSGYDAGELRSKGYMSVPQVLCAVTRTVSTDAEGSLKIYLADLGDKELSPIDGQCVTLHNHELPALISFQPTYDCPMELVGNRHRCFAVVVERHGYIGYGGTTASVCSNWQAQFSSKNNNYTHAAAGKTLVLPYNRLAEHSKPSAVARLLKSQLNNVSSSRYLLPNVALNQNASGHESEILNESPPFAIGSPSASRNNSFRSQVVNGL

[3] = molecular target: T3, CmPSRB1 (recombinant PSRB1) (Cucurbita maxima); test: cell_activity; details: cell-to-cell movement, binding not directly measured
T3 chain: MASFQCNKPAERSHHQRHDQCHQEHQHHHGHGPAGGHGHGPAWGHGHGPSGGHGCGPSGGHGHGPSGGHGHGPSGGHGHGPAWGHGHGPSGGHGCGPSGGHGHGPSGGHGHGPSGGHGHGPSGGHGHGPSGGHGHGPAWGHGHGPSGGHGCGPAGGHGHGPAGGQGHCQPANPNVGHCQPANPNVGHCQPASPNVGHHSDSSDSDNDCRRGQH

[4] = molecular target: T3, CmPSRB1 (recombinant PSRB1); test: EMSA; competition gel shift; 20 mM Hepes pH 7.0, 50 mM KCl, 1 mM EDTA, 30 C; details: tags: none (native, pET15b, E. coli); 3' 2 nt overhang
Description: Electrophoretic mobility-shift assays were carried out as described (S12). Reactions were assembled on ice in 10 μl of binding buffer (20 mM Hepes, pH 7.0, 50 mM KCl, 1 mM EDTA, 1 mM DTT, and 5% [v/v] glycerol). An equal amount of ³²P end-labeled 25 nt ss- or dsRNA was used in assays with various concentrations of purified and desalted R-CmPSRB1. Reaction mixtures were incubated at 30° C. for 20 min and then placed on ice. Reactions were then resolved on a 5% (v/v) nondenaturing polyacrylamide gel that was pre-run for 30 min at 50 V. Electrophoresis was typically carried out at 4° C. and 200 V. The gel was then dried and autoradiographed.

In the case of KN1 RNA (antisense), the activity (% injections with movement) ([1]; CITED includes previous studies (S13), 2 of 10, cited from earlier work) is listed as 20.

In the case of KN1 RNA (sense), the activity (% injections with movement) ([1]; CITED includes previous studies (S13), 20 of 22, cited from earlier work) is given as 91.

With CmRINGP RNA (1 kb) the activity (% injections with movement) ([2]; cell-to-cell movement, 10 of 10) was 100, the activity (% injections with movement) ([3]; 0 of 8) was 0 and the activity (% injections with movement) ([1]; cell-to-cell movement, 0 of 12) was 0.

With GGAAAACUACCUGUUCCAUGGCCAA the activity (% injections with movement) ([2]; cell-to-cell movement, 0 of 10) was 0.

25 nt ssDNA gave an activity (% injections with movement) ([3]; 0 of 14) of 0.

25 nt dsRNA (overhang type not stated) gave an activity (% injections with movement) ([2]; with FITC-dextran, 0 of 13) of 0.

B1: 25 nt dsRNA 3' 2 nt overhang (FK221/FK224) (dsRNA)
RNA 1: GGAAAACUACCUGUUCCAUGGCCAA
RNA 2: GGCCAUGGAACAGGUAGUUUUCCAG
For B1, the Kd [4] was 30.6 µM.
